Results on one molecule are retold here after PMC6175958, “Formation of the β-barrel assembly machinery complex in lipid bilayers as seen by solid-state NMR” (Nature Communications, 2018).

The target of this assay is T1, BamCDE complex (E. coli, UniProt P0A903 25-344; P0AC02 20-245; P0A937 20-113).
T1 construct: BamC, lipoprotein of the E. coli BAM complex; BamD, lipoprotein of the E. coli BAM complex; BamE, lipoprotein of the E. coli BAM complex; Unlabelled; also called BamCDE sub-complex; BamCDE subcomplex; copies: + +
Description: SEC; equimolar combination of the detergent solubilized proteins, mild rotation 1 h at 4 °C, then gel filtration on HiLoad 26/600 Superdex 200 pg. The following applies: both partners purified.

B1: BamAP4P5 (D264–W810) (domain or fragment)
chain: not shown
notes: BamA of E. coli, POTRA domains P4 and P5 plus the transmembrane β-barrel, residues D264–W810 (547 residues); Isotope labelled (AVLTI 13C/15N, or 13C-Ile, 13C-Phe and 15N-Gly) for the ssNMR samples; also called BamP4P5
With B1, the binding result is given as “binds”.
